According to the RNAGym collection of RNA variant scans (doi:10.1073/pnas.2313332121):

B1: TPR t1 (parent)
chain: GACCAAUCUGCCCUCAGAGCUCGAGAACAUCUUCGGAUGCAGAGGAGGCAGGCUUCGGUGGCGCGAUAGCGCCAACGUCCUCAACCUCCAAUGCAUCCCACCACAUGAUGAUGCCUGAAGAGCCUUGGUUUUUUG

Variants of: B1
Assay: polymerase ribozyme fitness, log enrichment relative to wild type (log ratio); higher = more active; in vitro selection for triplet polymerase activity
Summary of the method: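 After PCR construction and transcription, each subunit's mutant library from a heterodimeric triplet polymerase ribozyme was annealed with a biotinylated primer, the partner subunit and triplets. Incubation was frozen, at −7 °C, and extended constructs were gel-excised, bound to streptavidin beads and amplified by RT-PCR, in one selection round done in triplicate. Fitness is the logarithm of a genotype's enrichment divided by that of the wild type, from inverse-variance-weighted replicate averages of Illumina-sequenced inputs and outputs. The base of the logarithm is 2, and genotypes needed ≥10 input reads and ≥1 read per output.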

Point of comparison: C8G C13G A37C G52C C62G C86U, “polymerase ribozyme fitness (log ratio)” value -4.08. Against it:
- C8G U14G G35C C64U C94U C124G — higher, -3.33
- C8G A16U — higher, 0.648
- C8G G10U G69U U81C — higher, -0.318
- C8G C49A G71U U92A C123U — higher, -2.6
- C8G C11G U54C U55G C56U — higher, -1.33
- C8A U130G — higher, 0.269
- C8G A46U G52U C56A C82U C101A — higher, -1.86
- C8G C11G C20U G63C — higher, -1.38
- C8G G17C C40U G61U U106A U131A — lower, -4.28
- C8G C80U — higher, 0.0565
- C8G G60U U81A C123A — higher, 1.75
- C8G A16G C56G A83C — higher, 0.0154
- C8G C13G C15G C34A A46C C88U C123U — lower, -5.49
- C8G G63C U92A — higher, -3.28
- C8G U14G C53U G71U — higher, 0.478
- C8G A46U — higher, -0.191
- C8G G10C G19U A37U C53G — higher, -3.79
- C8G A74C G120C — higher, 1.98
- C8G C56U C104A U129G — higher, -1.17
- C8G A18G G19A A27C — within 0.2 log units, -3.93
- C8G C11G A24G C40U C56U C94U — higher, -2.88
- C8U A26G U54C C72U — higher, -2.88
- C8G C15U C62U C89G G93A C101U G113C C114U G127C — within 0.2 log units, -4.12
- C8G A29C G48A C70U — higher, -2.95
- C8G C34U C53G A90U G120A — lower, -5.88
- C8G G35U — higher, -3.78
- C8G A37G G71A C123A U133G — higher, 1.08
- C8G A26U U81A — higher, -3.21
- C8G C15G U21C G36A C82U U112A — higher, -1.27
- C8G U21C G45U C49G — higher, -0.918
- C8A U133A — higher, 0.119
- C8U A37U C70A U112C — higher, 0.338
- C8U A24G G113U C114U G122A — higher, -1.73
- C8G G61A U78C U92A — higher, -3.12
- C8G C80G G113U — lower, -5.81
- C8G C11U G52U U81G U92C A119G U133A — lower, -5.64
- C8G C56A C94U — higher, 0.74
- C8G G45U — higher, -1.39
- C8G C22U C40G G120A C124A — higher, -2.61
- C8G U55G C88A A121U G128U — higher, 0.0321
- C8G C62U U106A G113U — higher, -1.94
- C8G C34U — higher, -3.12
- C8G C34G — lower, -6.45
- C8G G42C C70G — lower, -5.8
- C8G G42A C53A G63A U81C C82A C86U C99G A118U — lower, -7.86
- C8G G69C U78G C101A — higher, -3.19
- C8G G10C C73G U81A C88U — higher, -1.77
- C8G C11U U21C U132A — higher, -0.171
- C8G A41G G58C A83G G110U A121G — lower, -4.41
- C8G G19U G48A A50U U54G C72U U92A U112A — within 0.2 log units, -4.04
- C8G G47C G69U U92A G93U C123A U126A — higher, -3.8
- C8G G47C C86G C124A — higher, 1.6
- C8U A29U G47C C72U C102A — lower, -5.13
- C8G G47A C97A G120U — higher, -2.93
- C8G C15G C70G C114U — lower, -5.64
- C8G C34G C89A U96G A100U — lower, -7.34
- C8G C11A A50U U81C — higher, -2.29
- C8G C11U A121C U130A — higher, 1.01
- C8G C12A G39A C85U U112A G113C — higher, -1.36
- C8U A41C G58U C94G C104U U106A U112C — higher, -3.18
- C8U A29U C72A — higher, -1.79
- C8G C97U U109G C123U — lower, -4.98
- C8G A37U U38C G47A U131A — higher, -1.99
- C8G G61A C94U C99G G117C — lower, -7.13
- C8G A24C U38G G44A G63A C88U A95C G117U — lower, -7.47
- C8G G71U C82U C86U — higher, -1.12
- C8G U14A — higher, 0.372
- C8G U96C — higher, 0.587
- C8G G61C C89U C104U — higher, -2.02
- C8G A26G G57U A119G U130G — higher, -0.722
- C8G A37C G48U C85A — higher, 0.211
- C8G G48C A50U C53A C62G U129C — higher, -2.9
- C8G A16C G61C G71A G120C — lower, -6.1
- C8G C15U — higher, -1.19
- C8G C12U G42C G93A — higher, -2.42
- C8G A29U A68G C88U U125G — higher, -3.26
- C8G C13G G17A G122A — higher, -0.902
- C8G C15G C76G — higher, -1.01
- C8G A50U G60U C123A G128U U130A — higher, -0.561
- C8G G42A G63A — higher, -2.89
- C8G C13G G36A U78A A111C — higher, 0.328
- C8G G48A U96G U129A — higher, -0.823
